biological target: MAPKAP Kinase II (MK2)

Row | Substance | % of … [SEQ ID NO: 124] Reaction Velocity at an Inhibitor Concentration of 100 µM [%]
1 | KALNRQLGdVAA (peptide) | 260
2 | KALNRQdLGVAA (peptide) | 357
3 | KALNRdQLGVAA (peptide) | 276
4 | KALNdRQLGVAA (peptide) | 306
5 | KALdNRQLGVAA (peptide) | 95

From patent US9447158B2
